Test results as given in the supplement of paper PMC10724198.
± gives the standard deviation of the averaged measurements.

What follows are sequences tested on Saccharomyces cerevisiae (assay: protein stability index of tFT-peptide fusion (C-terminal peptide) (PSI (0-1 scale)); higher = more stable (slower turnover)). Conditions: genetic background: wild type; temperature: 30 C.
Description: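 MPS profiling in S. cerevisiae of the yeast C-terminome library: the last 12 aa of each annotated ORF are fused to the C-terminus of a sfGFP-mCherry timer, after a GGGS linker. Cells are FACS-sorted into 8 mCherry/sfGFP bins and deep-sequenced. PSI runs from 0 (unstable) to 1 (stable); wild type and das1Δ backgrounds, two technical replicates each.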

| Sequence | protein stability index |
| --- | --- |
| LYGKYNYAAQKV [YDL124W C-terminal 12 aa] | 0.333 ± 0.014 |
| LYKRWVPGRNRD [SEN2 C-terminal 12 aa] | 0.696 ± 0.034 |
| LYVTVFNRSDEA [AVT7 C-terminal 12 aa] | 0.6811 ± 0.0037 |
| MEDILDETTELD [ATG40 C-terminal 12 aa] | 0.715 ± 0.072 |
| MEKENSGLIAFS [HOS2 C-terminal 12 aa] | 0.7064 ± 0.0059 |
| MELWYTCLSKNL [YCR050C C-terminal 12 aa] | 0.671 ± 0.034 |
| MERRARQQRGQD [MND2 C-terminal 12 aa] | 0.717 ± 0.046 |
| MFGVHDKSVIIE [NSE5 C-terminal 12 aa] | 0.7 ± 0.032 |
| MFKFNVHKKSKV [TAD2 C-terminal 12 aa] | 0.758 ± 0.048 |
| MGDEYVSSDEDF [HEF3 C-terminal 12 aa] | 0.686 ± 0.054 |
| MGISSNSFQGVN [KDX1 C-terminal 12 aa] | 0.6626 ± 0.0032 |
| MGVFILFLDYVG [UFE1 C-terminal 12 aa] | 0.314 ± 0.013 |
| MKGPAALWDVQF [ARP9 C-terminal 12 aa] | 0.744 ± 0.044 |
| MKRSASYTGAKV [TPS2 C-terminal 12 aa] | 0.709 ± 0.043 |
| MLCTLTGYQNND [NUP192 C-terminal 12 aa] | 0.685 ± 0.017 |
| MPGGMPGMPGMM [HSP60 C-terminal 12 aa] | 0.709 ± 0.0041 |
| MQRVSTQHEKET [PMA1 C-terminal 12 aa] | 0.698 ± 0.022 |
| MRLTHKSKKKMK [SUE1 C-terminal 12 aa] | 0.695 ± 0.0075 |
| MSKLGLIPKDFQ [HIS4 C-terminal 12 aa] | 0.707 ± 0.036 |
| MSLLGLVPVDRM [MSR1 C-terminal 12 aa] | 0.688 ± 0.023 |
| MTGILKDYSHRV [TFA2 C-terminal 12 aa] | 0.723 ± 0.063 |

| Sequence | protein stability index |
| --- | --- |
| MVNEWIHGGFSL [PRC1 C-terminal 12 aa] | 0.702 ± 0.019 |
| MYGLGIRDCCIM [RCY1 C-terminal 12 aa] | 0.776 ± 0.088 |
| NAIKNWTGVNVK [MIC26 C-terminal 12 aa] | 0.695 ± 0.0088 |
| NAKKGSKIEEIE [PTC3 C-terminal 12 aa] | 0.6656 ± 0.0058 |
| NCIETFVAEKTT [SRB6 C-terminal 12 aa] | 0.669 ± 0.0071 |
| NDGTFLDEVTKN [OPI10 C-terminal 12 aa] | 0.687 ± 0.03 |
| NDKGEQVVGGNE [TMA16 C-terminal 12 aa] | 0.717 ± 0.04 |
| NDLITYMTKAAK [CYC7 C-terminal 12 aa] | 0.756 ± 0.14 |
| NEDSMEIDDDLD [HSP104 C-terminal 12 aa] | 0.665 ± 0.021 |
| NEKENSLSLSRL [MGT1 C-terminal 12 aa] | 0.752 ± 0.058 |
| NELRMSSSSLTN [VHS1 C-terminal 12 aa] | 0.693 ± 0.0083 |
| NERGLSSNYQTI [FMP42 C-terminal 12 aa] | 0.6736 ± 0.0013 |
| NGKTIKDATDNK [COX19 C-terminal 12 aa] | 0.6957 ± 0.0059 |
| NGRYIDTEFESM [LCB4 C-terminal 12 aa] | 0.681 ± 0.022 |
| NIRIVNGLQNTR [TIM8 C-terminal 12 aa] | 0.669 ± 0.011 |
| NKIANFVKNAKK [TRP1 C-terminal 12 aa] | 0.701 ± 0.029 |
| NKLKTLLAKIFD [IPI1 C-terminal 12 aa] | 0.699 ± 0.053 |
| NPGFIVEKRTID [MRPL33 C-terminal 12 aa] | 0.737 ± 0.0098 |
| NPKNLINDVRRT [CVM1 C-terminal 12 aa] | 0.635 ± 0.025 |
| NPPISVSVTGDE [SRT1 C-terminal 12 aa] | 0.6978 ± 0.0036 |
| NPWGGYSQVQSK [COX5A C-terminal 12 aa] | 0.688 ± 0.018 |

| Sequence | protein stability index |
| --- | --- |
| NQGSDVSFNEED [TOP2 C-terminal 12 aa] | 0.685 ± 0.045 |
| NQIIQARLKDLE [DNF3 C-terminal 12 aa] | 0.6964 ± 0.0035 |
| NQKKKFKMEFRG [SAP30 C-terminal 12 aa] | 0.665 ± 0.0075 |
| NRKIARMRHSKR [NUP1 C-terminal 12 aa] | 0.7119 ± 0.007 |
| NRSSKIVSIRED [CPR8 C-terminal 12 aa] | 0.714 ± 0.028 |
| NTDHKAGRSHLQ [PTC2 C-terminal 12 aa] | 0.668 ± 0.038 |
| NTEPPEAPAATN [AFG3 C-terminal 12 aa] | 0.668 ± 0.028 |
| NTGSKKSVPTSS [AQY3 C-terminal 12 aa] | 0.732 ± 0.068 |
| NTTHYNDTLLKQ [PHO3 C-terminal 12 aa] | 0.6619 ± 0.0058 |
| NYLVYHIEEENH [MNN9 C-terminal 12 aa] | 0.645 ± 0.052 |
| PAAWRALTQYIS [PTH1 C-terminal 12 aa] | 0.348 ± 0.029 |
| PCALYFKDHTAY [HUA2 C-terminal 12 aa] | 0.7209 ± 0.0011 |
| PDDFEFGDDDFM [HCR1 C-terminal 12 aa] | 0.763 ± 0.041 |
| PEHPGNKRAGSG [YER145C-A C-terminal 12 aa] | 0.6979 ± 0.0024 |
| PFDYSDIPAADI [GPI10 C-terminal 12 aa] | 0.698 ± 0.019 |
| PFEDKFEIHDER [OPY2 C-terminal 12 aa] | 0.7692 ± 0.00091 |
| PIDPKAFTFDSR [YCL012C C-terminal 12 aa] | 0.73 ± 0.016 |
| PIQDFIFNLVGE [VTC3 C-terminal 12 aa] | 0.6981 ± 0.0027 |
| PKSFVPRDIEKK [YGR265W C-terminal 12 aa] | 0.701 ± 0.056 |
| PLFADYLNKNLN [KTI12 C-terminal 12 aa] | 0.671 ± 0.014 |
| PLQWLSTWDIAP [PMT6 C-terminal 12 aa] | 0.757 ± 0.021 |

| Sequence | protein stability index |
| --- | --- |
| PLSYDPLGNLIR [TSR3 C-terminal 12 aa] | 0.728 ± 0.061 |
| PLTLISLLFAFI [YPS1 C-terminal 12 aa] | 0.612 ± 0.0015 |
| PNEFLRDQSTDI [APL5 C-terminal 12 aa] | 0.66 ± 0.02 |
| PQCGQVLSKGST [YGL132W C-terminal 12 aa] | 0.69 ± 0.063 |
| PQMARKQRGHIG [SDS23 C-terminal 12 aa] | 0.681 ± 0.0087 |
| PSGNIVMERLDE [UBX3 C-terminal 12 aa] | 0.64 ± 0.021 |
| PSIARILEFMQS [SAY1 C-terminal 12 aa] | 0.654 ± 0.09 |
| PVFTASQLRFAW [ESA1 C-terminal 12 aa] | 0.7148 ± 0.0046 |
| PVGAGNEPINPE [URN1 C-terminal 12 aa] | 0.704 ± 0.074 |
| PVTAIALLEARR [YER190C-A C-terminal 12 aa] | 0.65 ± 0.01 |
| PYNFIQLLHQGL [HOF1 C-terminal 12 aa] | 0.709 ± 0.012 |
| QAYIYIYIHIVN [EST2 C-terminal 12 aa] | 0.0717 ± 0.017 |
| QEEEEDVATDSE [YRO2 C-terminal 12 aa] | 0.711 ± 0.034 |
| QEIQKKPSQQVS [BIG1 C-terminal 12 aa] | 0.683 ± 0.066 |
| QFFLAPKFNDEE [POL30 C-terminal 12 aa] | 0.705 ± 0.023 |
| QFQTLNNLYFAQ [IME4 C-terminal 12 aa] | 0.673 ± 0.044 |
| QGHGPVSPSPTK [PTM1 C-terminal 12 aa] | 0.723 ± 0.086 |
| QGPRPGNWDQED [CCT8 C-terminal 12 aa] | 0.678 ± 0.016 |
| QGYKPNQSDRYY [PIN2 C-terminal 12 aa] | 0.711 ± 0.044 |
| QHYDEYYHELTN [PHO8 C-terminal 12 aa] | 0.68262 ± 0.00046 |
